# Reference: publication PMC4348373, “YY1 suppresses FEN1 over-expression and drug resistance in breast cancer”
# Experiments:
# [1] = molecular target: T1, YY1 (UniProt P25490 1-414); test: EMSA; complex diminished by anti-YY1, not by IgG (Fig 2C); Pull-down: 25 mM Tris, 150 mM NaCl, pH 7.2, room temperature, 30 min; EMSA: LightShift chemiluminescent kit, 5% native PAGE, buffer not stated; conditions: protein: recombinant; tags: N-terminal 3xFlag; label: 5'-biotin
# [2] = molecular target: T1, YY1; test: EMSA; Pull-down: 25 mM Tris, 150 mM NaCl, pH 7.2, room temperature, 30 min; EMSA: LightShift chemiluminescent kit, 5% native PAGE, buffer not stated; conditions: protein: recombinant; tags: N-terminal 3xFlag; label: 5'-biotin
# T1 sequence (P25490 whole entry): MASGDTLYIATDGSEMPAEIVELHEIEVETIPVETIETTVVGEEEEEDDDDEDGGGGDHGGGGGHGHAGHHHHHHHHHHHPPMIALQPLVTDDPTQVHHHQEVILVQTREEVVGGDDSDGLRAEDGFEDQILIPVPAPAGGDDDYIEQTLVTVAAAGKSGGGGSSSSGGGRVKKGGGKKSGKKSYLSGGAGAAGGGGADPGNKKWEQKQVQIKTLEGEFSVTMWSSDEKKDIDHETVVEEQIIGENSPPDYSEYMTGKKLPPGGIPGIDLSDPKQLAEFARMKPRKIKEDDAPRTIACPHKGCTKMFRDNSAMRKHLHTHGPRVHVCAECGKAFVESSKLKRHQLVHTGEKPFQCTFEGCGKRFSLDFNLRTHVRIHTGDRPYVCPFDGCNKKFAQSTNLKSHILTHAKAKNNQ
binder,measurement,setting,value
WT FEN1 (dsDNA) DNA 1: AACGCTCTCACCATTTTGCCCCGCGAAG DNA 2: CTTCGCGGGGCAAAATGGTGAGAGCGTT,binding result,[1],binds
MUT FEN1 (dsDNA) DNA 1: AACGCTCTCAGCAATTTGCCCCGCGAAG DNA 2: CTTCGCGGGGCAAATTGCTGAGAGCGTT,binding result,[2],no binding
